What all share (conditions): partners not purified
The target in assay [1] is T1, ARABIDOPSIS … PHOSPHOTRANSFER PROTEIN 6, Gal4 activation domain fusion (Arabidopsis thaliana (Mouse-ear cress)., UniProt Q9SSC9).
T1 construct: ARABIDOPSIS … PHOSPHOTRANSFER PROTEIN 6 (AHP6), A. thaliana; also called AHP6; source: yeast two-hybrid fusion (pGADT7-DEST, S. cerevisiae PJ69-4A)
Nature of the assay: two-hybrid; recombinant antibodies as Gal4 DNA BD fusions (pGBKT7), AHP proteins as Gal4 AD fusions (pGADT7-DEST); S. cerevisiae PJ69-4A; growth after 3 days at 30°C on media lacking Leu, Trp and His or Ade; 1-5 mM 3-Amino-1,2,4-triazole for stringent selection.

Assay [2] concerns the target T2, ARABIDOPSIS … PHOSPHOTRANSFER PROTEIN 3, Gal4 activation domain fusion (A. thaliana, UniProt Q9SAZ5).
T2 construct: ARABIDOPSIS … PHOSPHOTRANSFER PROTEIN 3 (AHP3), A. thaliana; also called AHP3; source: yeast two-hybrid fusion (pGADT7-DEST, S. cerevisiae PJ69-4A)
The description is as above.

Assay [3] has as its target T3, ARABIDOPSIS … PHOSPHOTRANSFER PROTEIN 4, Gal4 activation domain fusion (Arabidopsis thaliana (Mouse-ear cress)., UniProt Q9LU15).
T3 construct: ARABIDOPSIS … PHOSPHOTRANSFER PROTEIN 4 (AHP4), A. thaliana; also called AHP4; source: yeast two-hybrid fusion (pGADT7-DEST, S. cerevisiae PJ69-4A)
The assay is described as above.

The target in assay [4] is T4, ARABIDOPSIS … PHOSPHOTRANSFER PROTEIN 5, Gal4 activation domain fusion (A. thaliana, UniProt Q8L9T7).
T4 construct: ARABIDOPSIS … PHOSPHOTRANSFER PROTEIN 5 (AHP5), A. thaliana; also called AHP5; source: yeast two-hybrid fusion (pGADT7-DEST, S. cerevisiae PJ69-4A)
T4 sequence (Q8L9T7 whole entry, the tested form may be a part): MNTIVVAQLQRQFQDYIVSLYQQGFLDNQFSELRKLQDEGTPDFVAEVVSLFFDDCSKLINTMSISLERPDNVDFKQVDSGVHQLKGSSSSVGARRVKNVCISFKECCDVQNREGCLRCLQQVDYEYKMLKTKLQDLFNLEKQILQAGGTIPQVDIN
Described as above.

In assay [5] the target is T5, ARABIDOPSIS … PHOSPHOTRANSFER PROTEIN 2, Gal4 activation domain fusion (A. thaliana, UniProt Q9ZNV8).
T5 construct: ARABIDOPSIS … PHOSPHOTRANSFER PROTEIN 2 (AHP2), A. thaliana; also called AHP2; source: yeast two-hybrid fusion (pGADT7-DEST, S. cerevisiae PJ69-4A)
T5 sequence (Q9ZNV8 whole entry, the tested form may be a part): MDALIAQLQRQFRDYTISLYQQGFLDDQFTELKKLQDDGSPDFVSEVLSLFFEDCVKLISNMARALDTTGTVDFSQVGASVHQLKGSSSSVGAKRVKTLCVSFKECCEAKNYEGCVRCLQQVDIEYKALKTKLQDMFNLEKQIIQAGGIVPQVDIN
The description is as above.

The target in assay [6] is T6, ARABIDOPSIS … PHOSPHOTRANSFER PROTEIN 1, Gal4 activation domain fusion (Arabidopsis thaliana (Mouse-ear cress)., UniProt Q9ZNV9).
T6 construct: ARABIDOPSIS … PHOSPHOTRANSFER PROTEIN 1 (AHP1), A. thaliana; also called AHP1; source: yeast two-hybrid fusion (pGADT7-DEST, S. cerevisiae PJ69-4A)
T6 sequence (Q9ZNV9 whole entry, the tested form may be a part): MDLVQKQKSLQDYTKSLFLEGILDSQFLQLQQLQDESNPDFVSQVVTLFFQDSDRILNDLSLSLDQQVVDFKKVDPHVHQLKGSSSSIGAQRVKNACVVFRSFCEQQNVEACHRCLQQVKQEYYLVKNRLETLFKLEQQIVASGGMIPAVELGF
The description is as above.

The next assay deals with T7, AHP3:cYFP (Arabidopsis thaliana (Mouse-ear cress)., UniProt Q9SAZ5).
T7 construct: ARABIDOPSIS … PHOSPHOTRANSFER PROTEIN 3 (AHP3), A. thaliana; source: A. thaliana Col-0 mesophyll protoplasts, transfected; not shown: C-terminal fragment of YFP (cYFP), C-terminal, kept
T7 sequence (Q9SAZ5 whole entry, the tested form may be a part): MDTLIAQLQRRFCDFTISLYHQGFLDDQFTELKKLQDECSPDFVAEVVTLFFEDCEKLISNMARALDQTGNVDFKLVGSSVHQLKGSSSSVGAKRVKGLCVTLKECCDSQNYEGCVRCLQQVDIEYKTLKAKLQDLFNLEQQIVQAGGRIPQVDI
Description: split reporter (BiFC, NanoBiT); bimolecular fluorescent complementation with split YFP in A. thaliana Col-0 mesophyll protoplasts, 16 h at room temperature, confocal microscopy.

The target in the next assay is T8, cYFP:CKI1 RD (Arabidopsis thaliana, UniProt O22267).
T8 construct: CYTOKININ INDEPENDENT … KINASE 1 (CKI1), A. thaliana, receiver domain; source: A. thaliana mesophyll protoplasts, co-transformed; not shown: C-terminal fragment of YFP (cYFP), N-terminal, kept
T8 sequence (O22267 whole entry, looked up, the tested form may be a part): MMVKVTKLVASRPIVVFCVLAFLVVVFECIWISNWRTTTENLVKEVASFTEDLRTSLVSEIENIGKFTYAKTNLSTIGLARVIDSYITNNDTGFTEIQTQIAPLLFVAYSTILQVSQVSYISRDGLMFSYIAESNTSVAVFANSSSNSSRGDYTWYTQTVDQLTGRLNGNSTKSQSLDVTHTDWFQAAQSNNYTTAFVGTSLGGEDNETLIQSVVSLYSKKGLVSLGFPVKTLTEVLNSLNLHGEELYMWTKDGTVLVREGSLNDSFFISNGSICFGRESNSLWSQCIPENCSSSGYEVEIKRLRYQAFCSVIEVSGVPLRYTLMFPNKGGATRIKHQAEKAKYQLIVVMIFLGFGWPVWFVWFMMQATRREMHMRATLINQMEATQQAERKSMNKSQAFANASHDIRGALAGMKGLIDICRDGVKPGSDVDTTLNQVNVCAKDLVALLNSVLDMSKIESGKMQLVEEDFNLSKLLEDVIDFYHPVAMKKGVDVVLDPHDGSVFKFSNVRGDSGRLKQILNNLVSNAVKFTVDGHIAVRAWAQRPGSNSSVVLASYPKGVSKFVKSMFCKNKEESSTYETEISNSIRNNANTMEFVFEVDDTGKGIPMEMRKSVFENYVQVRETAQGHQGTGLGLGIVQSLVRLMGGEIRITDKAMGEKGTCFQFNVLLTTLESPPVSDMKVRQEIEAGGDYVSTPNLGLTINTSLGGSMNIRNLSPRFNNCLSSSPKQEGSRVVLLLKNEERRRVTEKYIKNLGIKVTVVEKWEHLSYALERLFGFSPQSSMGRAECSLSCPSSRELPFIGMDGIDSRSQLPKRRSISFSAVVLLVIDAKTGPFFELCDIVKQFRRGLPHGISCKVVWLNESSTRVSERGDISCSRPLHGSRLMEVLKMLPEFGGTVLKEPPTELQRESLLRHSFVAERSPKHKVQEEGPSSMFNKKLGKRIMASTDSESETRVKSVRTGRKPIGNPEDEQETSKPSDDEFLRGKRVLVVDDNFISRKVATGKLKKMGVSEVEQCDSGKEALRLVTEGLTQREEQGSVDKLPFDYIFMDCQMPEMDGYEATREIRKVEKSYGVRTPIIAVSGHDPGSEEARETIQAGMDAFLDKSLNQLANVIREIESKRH
Described as above.

Assay [7] addresses T2, ARABIDOPSIS … PHOSPHOTRANSFER PROTEIN …. Nature of the assay: two-hybrid; yeast three-hybrid: receiver domain as Gal4 BD fusion, AHP proteins as Gal4 AD fusions, scFv hB7A expressed ectopically from pY3HS or empty pY3HS; S. cerevisiae PJ69-4A; media lacking Leu, Trp, Ura and His or Ade, or with 1 mM 3-Amino-1,2,4-triazole.
The target of assay [8] is T9, recombinant ARABIDOPSIS … PHOSPHOTRANSFER PROTEIN 3 with 6x-His-tag (Arabidopsis thaliana (Mouse-ear cress)., UniProt Q9SAZ5).
T9 construct: ARABIDOPSIS … PHOSPHOTRANSFER PROTEIN 3 (AHP3), A. thaliana; also called AHP3; AHP3 antigen; source: purified
T9 sequence (Q9SAZ5 whole entry): as the sequence (Q9SAZ5 whole entry, the tested form may be a part) above
Nature of the assay: far-Western, overlay or dot blot; total protein extracts of bacterially expressed AHP proteins separated by SDS-PAGE and blotted on PVDF; periplasmic extract with the scFv diluted 1:2 in blocking buffer (5% skimmed milk, TBS, 0.1% Tween-20), 1 h; detected by anti-c-myc-tag antibody.

T2 sequence (Q9SAZ5 whole entry, the tested form may be a part): as above
T1 sequence (Q9SSC9 whole entry, the tested form may be a part): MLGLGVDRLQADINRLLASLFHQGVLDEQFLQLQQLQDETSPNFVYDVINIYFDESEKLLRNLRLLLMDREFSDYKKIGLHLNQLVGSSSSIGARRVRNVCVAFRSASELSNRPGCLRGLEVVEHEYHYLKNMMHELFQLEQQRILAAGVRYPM
T3 sequence (Q9LU15 whole entry, the tested form may be a part): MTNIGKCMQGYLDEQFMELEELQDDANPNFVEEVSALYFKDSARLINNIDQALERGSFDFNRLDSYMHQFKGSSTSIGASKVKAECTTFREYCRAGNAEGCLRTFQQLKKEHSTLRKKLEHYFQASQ

B1: scFv hB7A, Gal4 DNA binding domain fusion (scFv, V domains shown)
VH: EVQLLESGGGLVQPGGSLRLSCAASGFTFSFYRMSWVRQAPGKGLEWVSAISGSGGSTYYADSVKGRFTISRDNSKNTLYLQMNSLRAEDTAVYYCAKRVLTFDYWGQGTLVTVSS
VL: DIQMTQSPSSLSASVGDRVTITCRASQSIRKRLNWYQQKPGKAPKLLIYAASSLQSGVPSRFSGSGSGTDFTLTISSLQPEDFATYYCQQSYSTPPTFGQGTKVEIK
notes: selected from Human Single Fold scFv Library A+B; cloned between NcoI and NotI of pGBKT7; source: yeast two-hybrid fusion (pGBKT7, S. cerevisiae PJ69-4A)
For B1, the binding result in assay [1] was “no binding”; in assay [2], “binds”; in assay [3] it was “no binding”; in assay [4] it was “no binding”; in assay [5] it was “no binding”; in [6], “no binding”.

B2: nYFP:scFv-hB7A (scFv, V domains shown)
VH: B1 VH
VL: B1 VL
notes: sub-cloned from pY3HS with BglII and EcoRI, so the StrepTag II of the cassette may be carried along (surmise); source: A. thaliana Col-0 mesophyll protoplasts, transfected; not shown: N-terminal fragment of YFP (nYFP), N-terminal, kept
Consider B2, for which the binding result in the assay with AHP3:cYFP is given as “binds”; in the assay with cYFP:CKI1 RD it was “no binding”.

B3: scFv hB7A, ectopic expression from pY3HS (scFv, V domains shown)
VH: B1 VH
VL: B1 VL
notes: source: S. cerevisiae PJ69-4A, ectopic expression from pY3HS
Regarding B3, the binding result in assay [7] is on record as “binds”.

B4: scFv hB7A with C-terminal c-myc-tag (scFv, V domains shown)
VH: B1 VH
VL: B1 VL
notes: source: E. coli BL21(DE3), periplasmic extract; purified (ammonium sulfate, Protein L column); not shown: c-myc-tag, C-terminal, kept
Turning to B4, in assay [8], the binding result is “binds”.

B5: scFv-hB7A:nYFP (scFv, V domains shown)
VH: B1 VH
VL: B1 VL
notes: sub-cloned from pY3HS with BglII and EcoRI, so the StrepTag II of the cassette may be carried along (surmise); source: A. thaliana Col-0 mesophyll protoplasts, transfected; not shown: N-terminal fragment of YFP (nYFP), C-terminal, kept
Turning to B5, the binding result with AHP3:cYFP is recorded as “binds”.
